Biological target: T1, Rac1 (61L) binding to POSH-GBD (Homo sapiens, UniProt P63000, Q61L)
T1 construct: His; purchased Cytoskeleton Inc. R6101
Assay: Rac1:POSH G-LISA competition (drug discovery application)
Protocol: Active Rho protein (typically 7-15 μg total cell lysate or 1-5 ng of constitutively active recombinant protein) were either added directly to the effector bound G-LISA plate (Rac1 and Cdc42 G-LISAs) or diluted with an equal volume of Binding Buffer (20% PEG 8000, Sigma, St. Louis, Mo.) prior to adding to effector bound plates (RhoA G-LISA). The reactions were incubated for 30 minutes at 4° C. on a microtiter titer plate shaker after which wells were washed once with 200 μl of PBST (PBS pH 7.2, 0.05% Tween-20) and immediately treated with 200 μl of Antigen Presenting Buffer (1% trichloroacetic acid (TCA)) for 2-5 minutes at room temperature. Wells were then washed three times with 200 μl each of PBST and primary antibody is added typically at 1 μg/ml (RhoA specific), 0.25 μg/ml (Rac1 specific), 1 μg/ml (Cdc42 specific) and incubated at room temperature for 45 minutes (incubation at 4° C. gave similar results). Wells are washed three times with 200 μl each of PBST and incubated with appropriate secondary antibody for 45 minutes at room temperature (incubation at 4° C. gave similar results). […] After three washes each of 200 μl PBST the activated Rho proteins are detected using absorbance or luminescence detection as described below. […]

B1: ROCK-GST: RhoA effector ROCK-GBD peptide, negative control inhibitor in Rac1:POSH G-LISA (protein)
chain: EAEQYFSTLYKTQVKELKEEIEEKNRENLKKIQELQNEKETLATQLDLAETKAESEQLARGLLEEQYFELTQESKKAASRNRQEITDKDHTVSRLEEANSMLTKDIEILRRENEELTEKMKKAEEEYKLEKEEEISNLKAAFEKNINTERTLKTQAVNKLAEIMNRKDFKIDRKKANT
modifications: left off: a dimerising Fc or GST
  IC50 relative to PAK: approximately 80 times

From US7763418B2, “Detection of Rho proteins” (Cytoskeleton, Inc., priority 2005, dated 2010)
